PMC10786891, “Massively parallel profiling of RNA-targeting CRISPR-Cas13d”

T1: EsCas13d, nuclease-dead (Eubacterium siraeum, UniProt B0MS50, R295A;H300A;R849A;H854A)
T1 sequence: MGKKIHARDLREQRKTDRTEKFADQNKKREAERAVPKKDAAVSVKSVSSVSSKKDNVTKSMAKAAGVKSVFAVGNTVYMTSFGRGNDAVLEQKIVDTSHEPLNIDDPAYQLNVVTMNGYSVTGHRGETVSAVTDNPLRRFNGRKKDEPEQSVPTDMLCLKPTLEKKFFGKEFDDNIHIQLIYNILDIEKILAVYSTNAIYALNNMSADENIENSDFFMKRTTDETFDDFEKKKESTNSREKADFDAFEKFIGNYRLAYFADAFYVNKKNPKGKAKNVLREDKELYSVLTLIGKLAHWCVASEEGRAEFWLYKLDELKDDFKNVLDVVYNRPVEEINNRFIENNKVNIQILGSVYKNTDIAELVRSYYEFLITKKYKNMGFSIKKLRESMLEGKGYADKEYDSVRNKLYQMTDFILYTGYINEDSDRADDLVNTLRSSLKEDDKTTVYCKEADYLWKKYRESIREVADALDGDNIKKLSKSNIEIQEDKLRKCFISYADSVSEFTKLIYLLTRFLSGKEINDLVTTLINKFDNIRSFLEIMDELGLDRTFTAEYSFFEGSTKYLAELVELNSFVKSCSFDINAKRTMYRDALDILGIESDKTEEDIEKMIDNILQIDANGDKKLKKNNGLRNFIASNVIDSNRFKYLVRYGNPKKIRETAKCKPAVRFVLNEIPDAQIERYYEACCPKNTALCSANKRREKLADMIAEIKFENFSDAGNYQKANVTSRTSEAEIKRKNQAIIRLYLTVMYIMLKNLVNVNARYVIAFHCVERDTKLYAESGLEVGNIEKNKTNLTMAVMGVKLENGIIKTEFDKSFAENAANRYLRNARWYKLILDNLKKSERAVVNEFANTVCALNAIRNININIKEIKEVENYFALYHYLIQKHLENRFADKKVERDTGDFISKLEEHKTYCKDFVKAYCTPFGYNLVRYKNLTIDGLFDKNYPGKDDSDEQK


What follows are binders tested against T1, EsCas13d, nuclease-dead (assay: crRNA (strand 1, pre-loaded); Mg2+; 40 mM Tris-HCl pH 7.5, 150 mM NaCl, 6 mM MgCl2, 1 mM DTT, 0.1% Tween-20, 0.2 mg/ml BSA; 25 C; 10 min per concentration, then washed). Conditions: tags: His6-TwinStrep-SUMO cleaved; N-terminal SNAP kept (SNAP-Surface 488); label: 3' end held by stalled T7 RNA polymerase.

Row | Binder | Kd [nM]
1 | target 1 U3G,U19A (mixed) RNA 1: CACCCGUGCAAAAAUGCAGGGGUCUAAAACUGAGCGGAUAACCUCUCUAUGG RNA 2: GGGAAUGGAUCCACAUCUACGAAUUCGUACCAAAGAGAGGUUAUCCGCGCACCGAGAUCGGAAGAGCACACGU | 45 ± 10
2 | target 1 del4,del7 (mixed) RNA 1: CACCCGUGCAAAAAUGCAGGGGUCUAAAACUGAGCGGAUAACCUCUCUAUGG RNA 2: GGGAAUGGAUCCACAUCUACGAAUUCGUACCAUAGAGAGGUUAUCGUCACCGAGAUCGGAAGAGCACACGU | 5.34 ± 0.24
3 | target 1 insU 3' of 21,insC 3' of 19 (mixed) RNA 1: CACCCGUGCAAAAAUGCAGGGGUCUAAAACUGAGCGGAUAACCUCUCUAUGG RNA 2: GGGAAUGGAUCCACAUCUACGAAUUCGUACCUAUCAGAGAGGUUAUCCGCUCACCGAGAUCGGAAGAGCACACGU | ~100
4 | target 2 MT 5'PFS CUU 3'PFS UCG (mixed) RNA 1: CACCCGUGCAAAAUUGCAGGGGUCUAAAACCUUCUCCAAAUUGUUUCAUCCU RNA 2: GGGAAUGGAUCCACAUCUACGAAUUCCUUAGGAUGAAACAAUUUGGAGAAGUCGAGAUCGGAAGAGCACACGU | 4.6 ± 0.4
5 | target 2 MT 5'PFS AGU 3'PFS AUC (mixed) RNA 1: CACCCGUGCAAAAUUGCAGGGGUCUAAAACCUUCUCCAAAUUGUUUCAUCCU RNA 2: GGGAAUGGAUCCACAUCUACGAAUUCAGUAGGAUGAAACAAUUUGGAGAAGAUCAGAUCGGAAGAGCACACGU | 16.7 ± 3.2
6 | target 2 MT 5'PFS AAG 3'PFS CAG (mixed) RNA 1: CACCCGUGCAAAAUUGCAGGGGUCUAAAACCUUCUCCAAAUUGUUUCAUCCU RNA 2: GGGAAUGGAUCCACAUCUACGAAUUCAAGAGGAUGAAACAAUUUGGAGAAGCAGAGAUCGGAAGAGCACACGU | 4.2 ± 0.7
7 | target 2 MT 5'PFS GGU 3'PFS CUG (mixed) RNA 1: CACCCGUGCAAAAUUGCAGGGGUCUAAAACCUUCUCCAAAUUGUUUCAUCCU RNA 2: GGGAAUGGAUCCACAUCUACGAAUUCGGUAGGAUGAAACAAUUUGGAGAAGCUGAGAUCGGAAGAGCACACGU | 14 ± 1.3
8 | target 2 MT 5'PFS UUC 3'PFS AUA (mixed) RNA 1: CACCCGUGCAAAAUUGCAGGGGUCUAAAACCUUCUCCAAAUUGUUUCAUCCU RNA 2: GGGAAUGGAUCCACAUCUACGAAUUCUUCAGGAUGAAACAAUUUGGAGAAGAUAAGAUCGGAAGAGCACACGU | 16 ± 5
9 | target 2 MT 5'PFS GAU 3'PFS CGC (mixed) RNA 1: CACCCGUGCAAAAUUGCAGGGGUCUAAAACCUUCUCCAAAUUGUUUCAUCCU RNA 2: GGGAAUGGAUCCACAUCUACGAAUUCGAUAGGAUGAAACAAUUUGGAGAAGCGCAGAUCGGAAGAGCACACGU | 12.7 ± 2
10 | target 2 MT 5'PFS GUA 3'PFS UUA (mixed) RNA 1: CACCCGUGCAAAAUUGCAGGGGUCUAAAACCUUCUCCAAAUUGUUUCAUCCU RNA 2: GGGAAUGGAUCCACAUCUACGAAUUCGUAAGGAUGAAACAAUUUGGAGAAGUUAAGAUCGGAAGAGCACACGU | 22 ± 4
11 | target 2 MT 5'PFS AAG 3'PFS CAC (mixed) RNA 1: CACCCGUGCAAAAUUGCAGGGGUCUAAAACCUUCUCCAAAUUGUUUCAUCCU RNA 2: GGGAAUGGAUCCACAUCUACGAAUUCAAGAGGAUGAAACAAUUUGGAGAAGCACAGAUCGGAAGAGCACACGU | 2.9 ± 1
12 | target 2 MT 5'PFS CUU 3'PFS UCU (mixed) RNA 1: CACCCGUGCAAAAUUGCAGGGGUCUAAAACCUUCUCCAAAUUGUUUCAUCCU RNA 2: GGGAAUGGAUCCACAUCUACGAAUUCCUUAGGAUGAAACAAUUUGGAGAAGUCUAGAUCGGAAGAGCACACGU | 8.1 ± 0.8
13 | target 2 MT 5'PFS GUA 3'PFS UUC (mixed) RNA 1: CACCCGUGCAAAAUUGCAGGGGUCUAAAACCUUCUCCAAAUUGUUUCAUCCU RNA 2: GGGAAUGGAUCCACAUCUACGAAUUCGUAAGGAUGAAACAAUUUGGAGAAGUUCAGAUCGGAAGAGCACACGU | 42 ± 11
14 | target 2 MT 5'PFS AGU 3'PFS AUU (mixed) RNA 1: CACCCGUGCAAAAUUGCAGGGGUCUAAAACCUUCUCCAAAUUGUUUCAUCCU RNA 2: GGGAAUGGAUCCACAUCUACGAAUUCAGUAGGAUGAAACAAUUUGGAGAAGAUUAGAUCGGAAGAGCACACGU | 12.1 ± 2.1
15 | target 2 MT 5'PFS UGA 3'PFS UAC (mixed) RNA 1: CACCCGUGCAAAAUUGCAGGGGUCUAAAACCUUCUCCAAAUUGUUUCAUCCU RNA 2: GGGAAUGGAUCCACAUCUACGAAUUCUGAAGGAUGAAACAAUUUGGAGAAGUACAGAUCGGAAGAGCACACGU | 9.1 ± 1.6
16 | target 2 MT 5'PFS GGU 3'PFS CUC (mixed) RNA 1: CACCCGUGCAAAAUUGCAGGGGUCUAAAACCUUCUCCAAAUUGUUUCAUCCU RNA 2: GGGAAUGGAUCCACAUCUACGAAUUCGGUAGGAUGAAACAAUUUGGAGAAGCUCAGAUCGGAAGAGCACACGU | 17.8 ± 1.9
17 | target 2 MT 5'PFS GAU 3'PFS CGA (mixed) RNA 1: CACCCGUGCAAAAUUGCAGGGGUCUAAAACCUUCUCCAAAUUGUUUCAUCCU RNA 2: GGGAAUGGAUCCACAUCUACGAAUUCGAUAGGAUGAAACAAUUUGGAGAAGCGAAGAUCGGAAGAGCACACGU | 10.9 ± 1.4
18 | target 2 MT 5'PFS GUA 3'PFS UUU (mixed) RNA 1: CACCCGUGCAAAAUUGCAGGGGUCUAAAACCUUCUCCAAAUUGUUUCAUCCU RNA 2: GGGAAUGGAUCCACAUCUACGAAUUCGUAAGGAUGAAACAAUUUGGAGAAGUUUAGAUCGGAAGAGCACACGU | 62 ± 18
19 | target 2 MT 5'PFS CUG 3'PFS CCG (mixed) RNA 1: CACCCGUGCAAAAUUGCAGGGGUCUAAAACCUUCUCCAAAUUGUUUCAUCCU RNA 2: GGGAAUGGAUCCACAUCUACGAAUUCCUGAGGAUGAAACAAUUUGGAGAAGCCGAGAUCGGAAGAGCACACGU | 4.06 ± 0.2
20 | target 2 MT 5'PFS AGG 3'PFS ACG (mixed) RNA 1: CACCCGUGCAAAAUUGCAGGGGUCUAAAACCUUCUCCAAAUUGUUUCAUCCU RNA 2: GGGAAUGGAUCCACAUCUACGAAUUCAGGAGGAUGAAACAAUUUGGAGAAGACGAGAUCGGAAGAGCACACGU | 6.7 ± 0.6
21 | target 2 MT 5'PFS AUG 3'PFS ACG (mixed) RNA 1: CACCCGUGCAAAAUUGCAGGGGUCUAAAACCUUCUCCAAAUUGUUUCAUCCU RNA 2: GGGAAUGGAUCCACAUCUACGAAUUCAUGAGGAUGAAACAAUUUGGAGAAGACGAGAUCGGAAGAGCACACGU | 12.6 ± 2.1
22 | target 2 MT 5'PFS CUG 3'PFS CCU (mixed) RNA 1: CACCCGUGCAAAAUUGCAGGGGUCUAAAACCUUCUCCAAAUUGUUUCAUCCU RNA 2: GGGAAUGGAUCCACAUCUACGAAUUCCUGAGGAUGAAACAAUUUGGAGAAGCCUAGAUCGGAAGAGCACACGU | 57 ± 22
23 | target 2 MT 5'PFS GGU 3'PFS CUA (mixed) RNA 1: CACCCGUGCAAAAUUGCAGGGGUCUAAAACCUUCUCCAAAUUGUUUCAUCCU RNA 2: GGGAAUGGAUCCACAUCUACGAAUUCGGUAGGAUGAAACAAUUUGGAGAAGCUAAGAUCGGAAGAGCACACGU | 12.6 ± 1.4
24 | target 2 MT 5'PFS AGU 3'PFS AUA (mixed) RNA 1: CACCCGUGCAAAAUUGCAGGGGUCUAAAACCUUCUCCAAAUUGUUUCAUCCU RNA 2: GGGAAUGGAUCCACAUCUACGAAUUCAGUAGGAUGAAACAAUUUGGAGAAGAUAAGAUCGGAAGAGCACACGU | 10.3 ± 1.5
25 | target 2 MT 5'PFS CUG 3'PFS CCA (mixed) RNA 1: CACCCGUGCAAAAUUGCAGGGGUCUAAAACCUUCUCCAAAUUGUUUCAUCCU RNA 2: GGGAAUGGAUCCACAUCUACGAAUUCCUGAGGAUGAAACAAUUUGGAGAAGCCAAGAUCGGAAGAGCACACGU | 14.9 ± 3.1
26 | target 2 MT 5'PFS GUA 3'PFS AUA (mixed) RNA 1: CACCCGUGCAAAAUUGCAGGGGUCUAAAACCUUCUCCAAAUUGUUUCAUCCU RNA 2: GGGAAUGGAUCCACAUCUACGAAUUCGUAAGGAUGAAACAAUUUGGAGAAGAUAAGAUCGGAAGAGCACACGU | 6.1 ± 0.7
27 | target 2 MT 5'PFS AAG 3'PFS CAU (mixed) RNA 1: CACCCGUGCAAAAUUGCAGGGGUCUAAAACCUUCUCCAAAUUGUUUCAUCCU RNA 2: GGGAAUGGAUCCACAUCUACGAAUUCAAGAGGAUGAAACAAUUUGGAGAAGCAUAGAUCGGAAGAGCACACGU | 3.4 ± 0.5
28 | target 2 MT 5'PFS CGA 3'PFS UCA (mixed) RNA 1: CACCCGUGCAAAAUUGCAGGGGUCUAAAACCUUCUCCAAAUUGUUUCAUCCU RNA 2: GGGAAUGGAUCCACAUCUACGAAUUCCGAAGGAUGAAACAAUUUGGAGAAGUCAAGAUCGGAAGAGCACACGU | ~26
